The text below walks through data of publication PMC10563079 (Molecules, 2023).

“And” between values parts separate entries of the source, which are not always exact repeats. Equal entries are not always repeated. Where two headings read alike, the source gives them in different places. Bridge positions count the residues as written; N and C are the ends. Ends that are not written are not given here. Peptide text beside a SMILES is read from it.

One assay concerns the target T1, sPHGDH (1-307) (Homo sapiens, UniProt O43175).
T1 construct: the truncated version of PHGDH (sPHGDH, 1-307); made in house
T1 sequence (O43175 1-307): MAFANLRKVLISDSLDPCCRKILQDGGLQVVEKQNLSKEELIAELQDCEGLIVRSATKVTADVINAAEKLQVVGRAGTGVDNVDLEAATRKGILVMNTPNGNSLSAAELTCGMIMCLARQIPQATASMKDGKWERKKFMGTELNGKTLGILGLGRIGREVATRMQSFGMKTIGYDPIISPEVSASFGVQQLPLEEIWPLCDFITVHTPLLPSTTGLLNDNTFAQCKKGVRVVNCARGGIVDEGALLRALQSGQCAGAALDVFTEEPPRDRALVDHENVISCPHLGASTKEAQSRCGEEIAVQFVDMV
Description: sPHGDH enzyme activity assay (NADH fluorescence). The format is biochemical. To be noted: sPHGDH; 12 h pre-incubation; read-out: IC50 Value. On the procedure:
(§1) PHGDH activity in the presence of peptides was measured in 96-well plates (100 μL per well) at 25 °C, through monitoring the NADH fluorescence (excitation at 360 nm and emission at 460 nm) over time. PAST1 and its substrate glutamate were also included in order to prevent product inhibition. In the enzyme assays, protein expression and purification, including the truncated version of PHGDH (sPHGDH, 1-307), the full-length PHGDH (1-533), and PAST1, were carried out as described in our previous papers. To evaluate the effects of peptides on enzyme activity, the peptides were pre-incubated with enzyme samples (sPHGDH 453.3 nM or PHGDH 30.9 nM) in the assay buffer (HEPES 50 mM, pH 7.5, 10 mM MgCl2, and 1 mM EDTA) for 12 h. Then, 1.98 μM PAST1, 1 mM NAD^+, and 30 mM glutamate were added and pre-incubated for 10 min before initiating the enzyme reaction via the addition of the substrate (1 mM 3-PG). Fluorescence signals were recorded for 3 min with the kinetics-reading mode of the Biotek plate reader (Synergy). IC50 values were obtained through fitting the data using a three-parameter Hill model of the graph of log dose against the percentage inhibition from three repeated experiments. For those peptides containing two disulfide bonds, a second step of oxidation reaction was carried out to generate the second disulfide pair. […] The purified Acm-protected peptide was then treated with iodine (I2, 1 wt% in MeOH), dropwise under acidic conditions until the solution became brown.

The next assay has as its target T2, sPHGDH (Homo sapiens, UniProt O43175).
T2 construct: the truncated version of PHGDH (sPHGDH, 1-307); made in house
T2 sequence (O43175 1-307): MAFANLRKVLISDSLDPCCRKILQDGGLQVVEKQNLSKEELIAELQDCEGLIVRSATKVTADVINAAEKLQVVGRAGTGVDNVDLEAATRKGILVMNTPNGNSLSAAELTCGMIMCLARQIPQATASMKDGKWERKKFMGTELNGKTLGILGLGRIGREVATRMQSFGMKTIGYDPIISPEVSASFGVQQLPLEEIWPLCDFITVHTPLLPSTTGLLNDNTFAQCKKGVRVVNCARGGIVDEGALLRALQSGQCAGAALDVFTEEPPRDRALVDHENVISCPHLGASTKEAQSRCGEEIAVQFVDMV
Description: Microscale Thermophoresis (MST) binding assay. How it is done:
In this study, we first used Microscale Thermophoresis assays (MST) to evaluate whether the active peptides found in the enzyme inhibition assay directly bind sPHGDH (Table 2).
The binding affinity between the recombinant sPHGDH and cyclic peptides was measured with a NanoTemper Monolith NT.115 instrument (NanoTemper Technologies, Munich, Germany). sPHGDH was first adjusted to a concentration of 10 μM and then labeled with Monolith™ NT.115 Protein Labeling Kit RED-NHS (NanoTemper Technologies, Germany), according to the protocol of the manufacturer. After the protein labeling experiment was completed, sPHGDH was diluted with binding buffer (50 mM HEPES, pH 7.5, 1 mM EDTA, 10 mM MgCl2, 100 mM NaCl, and 0.005% Tween 20) to ensure that the fluorescent intensity of sPHGDH during the MST assay was about 500 RU. In this assay, the final concentration of sPHGDH after mixing with the peptide was 20 nM. Subsequently, the peptides were serially diluted in binding buffer (16 points, 1:2 dilutions, from 0.5 mM), then mixed and incubated with an equal volume of diluted sPHGDH at room temperature for 16 h. After incubation, the samples were loaded into premium treated capillaries and measured by the NanoTemper Monolith NT.115 instrument (NanoTemper Technologies, Germany). […]
In general terms: Microscale thermophoresis detects binding through changes in fluorescence in a small temperature gradient.

Assay [1] deals with T3, full-length PHGDH (1-533) (Homo sapiens, UniProt O43175).
T3 construct: the full-length PHGDH (1-533); made in house
T3 sequence (O43175 1-533): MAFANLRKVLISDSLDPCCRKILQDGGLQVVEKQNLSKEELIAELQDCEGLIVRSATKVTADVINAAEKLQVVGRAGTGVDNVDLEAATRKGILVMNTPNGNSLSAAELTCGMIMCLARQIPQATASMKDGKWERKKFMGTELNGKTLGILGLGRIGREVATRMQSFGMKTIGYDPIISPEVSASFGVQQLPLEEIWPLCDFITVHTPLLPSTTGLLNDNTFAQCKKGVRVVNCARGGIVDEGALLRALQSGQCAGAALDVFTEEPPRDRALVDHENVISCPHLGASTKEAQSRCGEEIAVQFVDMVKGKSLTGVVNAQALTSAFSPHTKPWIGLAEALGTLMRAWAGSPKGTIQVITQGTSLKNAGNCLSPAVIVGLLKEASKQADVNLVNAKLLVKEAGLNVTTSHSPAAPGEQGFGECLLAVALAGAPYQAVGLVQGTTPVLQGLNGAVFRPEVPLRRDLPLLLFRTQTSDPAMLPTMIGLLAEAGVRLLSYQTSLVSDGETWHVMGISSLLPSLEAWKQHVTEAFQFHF
The assay is described as follows: full-length PHGDH enzyme activity assay (NADH fluorescence). In kind it is biochemical. To be noted: IC50 value (μM), full-length PHGDH activity. How it is done: as §1

Assay [2] has as its target T4, truncated version of PHGDH (sPHGDH, 1-307) (human, UniProt O43175 1-307, labelled with Monolith NT.115 Protein Labeling Kit RED-NHS (in the MST assay only)).
T4 sequence (looked up): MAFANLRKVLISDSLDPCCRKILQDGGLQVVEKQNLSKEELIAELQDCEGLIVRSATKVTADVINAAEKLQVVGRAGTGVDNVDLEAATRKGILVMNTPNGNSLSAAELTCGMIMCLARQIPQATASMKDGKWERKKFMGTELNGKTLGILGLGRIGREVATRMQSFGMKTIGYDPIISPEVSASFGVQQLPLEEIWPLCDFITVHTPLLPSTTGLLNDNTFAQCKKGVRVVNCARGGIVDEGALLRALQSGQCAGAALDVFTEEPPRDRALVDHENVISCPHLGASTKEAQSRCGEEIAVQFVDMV
Description: cell-based or functional assay.

The target in assay [3] is T4, truncated version of PHGDH (sPHGDH, …). Description: MST; sPHGDH labelled with RED-NHS, 20 nM final; peptides in 16 points, 1:2 dilutions from 0.5 mM; 50 mM HEPES pH 7.5, 1 mM EDTA, 10 mM MgCl2, 100 mM NaCl, 0.005% Tween 20; incubated 16 h at room temperature; 1:1 binding mode; apparent. As to conditions: both partners purified.
Assay [4] addresses truncated version of PHGDH (sPHGDH, 1-307) (human) (UniProt O43175).
Assay [5] has the same target. This is another data set of the same source.

Turning to `CSCC[C@@H]1NC(=O)[C@H](CO)NC(=O)[C@H](CC(C)C)NC(=O)[C@H]([C@@H](C)O)NC(=O)[C@H](C)NC(=O)[C@H](CCC(N)=O)NC(=O)[C@@H]2CCCN2C(=O)[C@H]([C@@H](C)O)NC(=O)[C@@H](NC(C)=O)CSSC[C@@H](C(=O)O)NC(=O)[C@H](CCCCN)NC(=O)[C@H](CCCCN)NC(=O)[C@H](CCC(N)=O)NC(=O)[C@H](CCC(=O)O)NC(=O)[C@H](Cc2c[nH]c3ccccc23)NC(=O)[C@H](CO)NC(=O)CNC(=O)[C@H](CC(N)=O)NC(=O)[C@H](CCCCN)NC1=O` [Cyc1-12, C1TPQA TLSMK NGSWE QKKC19] (Ac-CTPQATLSMKNGSWEQKKC-OH; disulfide 1-19), the IC50 (as a rule, the concentration that inhibits the measured activity by half) on sPHGDH (1-307) worked out at 5.6 ± 1.4 µM. For the same molecule, the Kd at sPHGDH (MST, sPHGDH 20 nM, 1:1 binding mode, read-out: KD) was found to be 13.4 ± 3.1 µM.

Regarding `CSCC[C@@H]1NC(=O)[C@@H]2CSSC[C@H](NC(=O)[C@H](Cc3c[nH]c4ccccc34)NC(=O)[C@H](CCCCN)NC(=O)CNC(=O)[C@H](CC(=O)O)NC(=O)[C@H](CCCNC(=N)N)NC1=O)C(=O)N[C@@H](CCCNC(=N)N)C(=O)N[C@@H](CCCCN)C(=O)N[C@@H](CCCCN)C(=O)N[C@H](C(=O)O)CSSC[C@H](NC(C)=O)C(=O)N[C@@H]([C@@H](C)O)C(=O)N1CCC[C@H]1C(=O)N[C@@H](CCC(N)=O)C(=O)N[C@@H](C)C(=O)N[C@@H]([C@@H](C)O)C(=O)N[C@@H](C)C(=O)N2` [Cyc2-3, C1TPQA TAC8MR DGKWC15 RKKC19] (Ac-CTPQATACMRDGKWCRKKC-OH; disulfide 1-19, 8-15), the IC50 in assay [1] was 53.1 µM and 32.9 µM. At sPHGDH, this molecule returned a Kd of 5.1 ± 1 µM.

B1: cyclic peptide cyc1-9 (peptide)
peptide: CTPQATASMKNGSWQEKKC
modifications: disulfide 1-19; not fully specified (N-terminus); printed as C_1_TPQA TASMK NGSWQ EKKC_19_
notes: the text names D11N, K13S and E15Q; designed from the dimerization loop of human PHGDH; source: synthetic peptide (GL Biochem, Shanghai; Fmoc solid-phase synthesis, HPLC purified)
In the case of B1, the “IC50 of inhibition of sPHGDH enzyme activity (NADH fluorescence); the pair blocked is the sPHGDH homo-dimer (m1+m1)” value in assay [2] amounted to 4.7 µM. Moreover, the Kd in assay [3] was 9.8 ± 2.2 µM.

B2: cyclic peptide cyc1-5 (peptide)
peptide: CTPQATASMLDGKWEWKKC
modifications: disulfide 1-19; not fully specified (N-terminus); printed as C_1_TPQA TASML DGKWE WKKC_19_
The molecule B2 yielded an IC50 of inhibition of sPHGDH enzyme activity (NADH fluorescence); the pair blocked is the sPHGDH homo-dimer (m1+m1), differs from the table in assay [4] of 13.7 µM. The same molecule had an IC50 of inhibition of sPHGDH enzyme activity (NADH fluorescence); the pair blocked is the sPHGDH homo-dimer (m1+m1) in assay [5] of 13.4 µM.

B3: cyclic peptide cyc1-2 (peptide)
peptide: CTPQATLSMKDGKWEEKKC
modifications: disulfide 1-19; not fully specified (N-terminus); printed as C_1_TPQA TLSMK DGKWE EKKC_19_
notes: cyc1-1 with A7L and R16E (peptide numbering); designed from the dimerization loop of human PHGDH; source: synthetic peptide (GL Biochem, Shanghai; Fmoc solid-phase synthesis, HPLC purified)
B3: in assay [2], the “IC50 of inhibition of sPHGDH enzyme activity (NADH fluorescence); the pair blocked is the sPHGDH homo-dimer (m1+m1)” value was found to be 6.4 µM. The Kd in assay [3] came out at 11.4 ± 3 µM.
